Results as given in patent publication US20160264649A1.

Experiments:
Test in all cases: cell-based or functional assay
[1] = target: HIV-1 92RW008 Env (HIV-1)
[2] = target: HIV-1 Env of isolate 6535.3 (subtype B) (HIV-1)
[3] = target: HIV-1 Env of isolate 92 BR 020 (subtype B) (HIV-1)
[4] = target: HIV-1 Env of isolate 93IN905 (subtype C) (HIV-1)
[5] = target: HIV-1 Env of isolate 93MW959 (subtype C) (HIV-1)
[6] = target: HIV-1 Env of isolate 93TH305 (subtype B) (HIV-1)
[7] = target: HIV-1 Env of isolate 97ZA012 (subtype C) (HIV-1)
[8] = target: HIV-1 Env of isolate 98IN022 (subtype C) (HIV-1)
[9] = target: HIV-1 Env of isolate APV_13 (subtype B) (HIV-1)
[10] = target: HIV-1 Env of isolate APV_17 (subtype B) (HIV-1)
[11] = target: HIV-1 Env of isolate APV_6 (subtype B) (HIV-1)
[12] = target: HIV-1 Env of isolate CAAN.A2 (subtype B) (HIV-1)
[13] = target: HIV-1 Env of isolate JRCSF (subtype B) (HIV-1) (UniProt P20871)
[14] = target: HIV-1 Env of isolate JRFL (subtype B) (HIV-1)
[15] = target: HIV-1 Env of isolate MG RM-C-019 (subtype C) (HIV-1)
[16] = target: HIV-1 Env of isolate MG RM-C-020 (subtype C) (HIV-1)
[17] = target: HIV-1 Env of isolate MG RM-C-022 (subtype C) (HIV-1)
[18] = target: HIV-1 Env of isolate MG RM-C-023 (subtype C) (HIV-1)
[19] = target: HIV-1 Env of isolate MG RM-C-024 (subtype C) (HIV-1)
[20] = target: HIV-1 Env of isolate MG RM-C-025 (subtype C) (HIV-1)
[21] = target: HIV-1 Env of isolate MG RM-C-026 (subtype C) (HIV-1)
[22] = target: HIV-1 Env of isolate MG RM-C-027 (subtype C) (HIV-1)
[23] = target: HIV-1 Env of isolate MG RM-C-028 (subtype C) (HIV-1)
[24] = target: HIV-1 Env of isolate MGRM-Chronic-B-001 (subtype B) (HIV-1)
[25] = target: HIV-1 Env of isolate MGRM-Chronic-B-002 (subtype B) (HIV-1)
[26] = target: HIV-1 Env of isolate MGRM-Chronic-B-003 (subtype B) (HIV-1)
[27] = target: HIV-1 Env of isolate MGRM-Chronic-B-004 (subtype B) (HIV-1)
[28] = target: HIV-1 Env of isolate MGRM-Chronic-B-008 (subtype B) (HIV-1)
[29] = target: HIV-1 Env of isolate MGRM-Chronic-B-010 (subtype B) (HIV-1)
[30] = target: HIV-1 Env of isolate MGRM-Chronic-B-011 (subtype B) (HIV-1)
[31] = target: HIV-1 Env of isolate MGRM-Chronic-B-012 (subtype B) (HIV-1)
[32] = target: HIV-1 Env of isolate MGRM-Chronic-B-017 (subtype B) (HIV-1)
[33] = target: HIV-1 Env of isolate MGRM-Chronic-B-018 (subtype B) (HIV-1)
[34] = target: HIV-1 Env of isolate MGRM-Chronic-B-020 (subtype B) (HIV-1)
[35] = target: HIV-1 Env of isolate MGRM-Chronic-B-023 (subtype B) (HIV-1)
[36] = target: HIV-1 Env of isolate MGRM-Chronic-B-024 (subtype B) (HIV-1)
[37] = target: HIV-1 Env of isolate NL43 (subtype B) (HIV-1)
[38] = target: HIV-1 Env of isolate PVO.4 (subtype B) (HIV-1)
[39] = target: HIV-1 Env of isolate QH0692.42 (subtype B) (HIV-1)
[40] = target: HIV-1 Env of isolate SC422661.8 (subtype B) (HIV-1)
[41] = target: HIV-1 Env of isolate SF162 (subtype B) (HIV-1) (UniProt P19550)
[42] = target: HIV-1 Env of isolate THR0.18 (subtype B) (HIV-1)
[43] = target: HIV-1 Env of isolate TRJ04551.58 (subtype B) (HIV-1)
[44] = target: HIV-1 Env of isolate TRO.11 (subtype B) (HIV-1)
[45] = target: HIV-1 Env of isolate VLGCB3 (subtype B) (HIV-1)

Chain of 4993_K13 (PGT-141) (antibody) (VH): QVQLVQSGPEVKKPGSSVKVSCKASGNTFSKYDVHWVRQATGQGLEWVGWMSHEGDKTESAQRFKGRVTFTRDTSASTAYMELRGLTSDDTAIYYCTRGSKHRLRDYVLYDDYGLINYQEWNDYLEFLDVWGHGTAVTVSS
Chain of 4993_K13 (PGT-141) (antibody) (VL): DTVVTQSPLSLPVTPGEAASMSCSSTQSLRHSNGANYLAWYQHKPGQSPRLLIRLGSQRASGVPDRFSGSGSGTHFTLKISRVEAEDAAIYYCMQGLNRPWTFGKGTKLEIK
Chain of 4995_P16 (PGT-145) (antibody) (VH): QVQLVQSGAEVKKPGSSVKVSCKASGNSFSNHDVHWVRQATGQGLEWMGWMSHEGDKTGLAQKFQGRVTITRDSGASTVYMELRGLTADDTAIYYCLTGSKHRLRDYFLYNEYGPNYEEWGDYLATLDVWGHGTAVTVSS
Chain of 4995_P16 (PGT-145) (antibody) (VL): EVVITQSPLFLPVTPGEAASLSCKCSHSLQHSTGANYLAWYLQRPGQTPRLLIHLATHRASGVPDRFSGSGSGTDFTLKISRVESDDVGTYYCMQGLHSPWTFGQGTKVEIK
Chain of 4970_K22 (PGT-144) (antibody) (VH): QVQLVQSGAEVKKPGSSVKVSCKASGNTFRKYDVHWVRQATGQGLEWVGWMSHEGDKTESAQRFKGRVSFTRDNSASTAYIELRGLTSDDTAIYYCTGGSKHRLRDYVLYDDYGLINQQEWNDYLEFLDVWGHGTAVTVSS
Chain of 4970_K22 (PGT-144) (antibody) (VL): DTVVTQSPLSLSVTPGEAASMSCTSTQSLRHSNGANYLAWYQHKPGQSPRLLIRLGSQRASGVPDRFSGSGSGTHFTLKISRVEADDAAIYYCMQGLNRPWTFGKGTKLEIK

In the case of 4970_K22 (PGT-144) (antibody), the IC50 [1] is reported as over 50 µg/mL, the IC50 [2] is reported as over 50 µg/mL and the IC50 [3] is reported as 44 µg/mL. For the same substance, the IC50 [4] was 0.132 µg/mL, the IC50 [5] was 0.332 µg/mL and the IC50 [6] was over 50 µg/mL. The IC50 [7] was over 50 µg/mL, the IC50 [8] was 0.171 µg/mL and the IC50 [9] was over 50 µg/mL. For the same substance, the IC50 [10] was 10.3 µg/mL, the IC50 [11] was over 50 µg/mL and the IC50 [12] was over 50 µg/mL. It also gave an IC50 [13] of 0.149 µg/mL, an IC50 [14] of over 50 µg/mL and an IC50 [15] of 0.513 µg/mL. For the same substance, the IC50 [16] was 1.29 µg/mL, the IC50 [17] was 2.58 µg/mL and the IC50 [18] was 0.38 µg/mL. It also gave an IC50 [19] of 2.06 µg/mL, an IC50 [20] of 17.6 µg/mL and an IC50 [21] of over 50 µg/mL. For the same substance, the IC50 [22] was over 50 µg/mL, the IC50 [23] was over 50 µg/mL and the IC50 [24] was over 50 µg/mL. The IC50 [25] was over 50 µg/mL, the IC50 [26] was 7.41 µg/mL and the IC50 [27] was 9.41 µg/mL. For the same substance, the IC50 [28] was over 50 µg/mL, the IC50 [29] was over 50 µg/mL and the IC50 [30] was 5.64 µg/mL. The IC50 [31] was over 50 µg/mL, the IC50 [32] was 0.712 µg/mL and the IC50 [33] was 2.4 µg/mL. It also gave an IC50 [34] of over 50 µg/mL, an IC50 [35] of over 50 µg/mL and an IC50 [36] of 0.04 µg/mL. For the same substance, the IC50 [37] was over 50 µg/mL, the IC50 [38] was 0.535 µg/mL and the IC50 [39] was over 50 µg/mL. It also gave an IC50 [40] of over 50 µg/mL, an IC50 [41] of over 50 µg/mL and an IC50 [42] of 0.029 µg/mL. It also gave an IC50 [43] of over 50 µg/mL, an IC50 [44] of 4.73 µg/mL and an IC50 [45] of over 50 µg/mL.
4995_P16 (PGT-145) (antibody) showed an IC50 [1] of 0.4 µg/mL, an IC50 [2] of over 50 µg/mL and an IC50 [3] of 1.05 µg/mL. It also gave an IC50 [4] of 0.002 µg/mL, an IC50 [5] of 1.2 µg/mL and an IC50 [6] of 0.032 µg/mL. For the same substance, the IC50 [7] was 0.915 µg/mL, the IC50 [8] was 0.005 µg/mL and the IC50 [9] was 0.337 µg/mL. It also gave an IC50 [10] of 0.488 µg/mL, an IC50 [11] of 0.104 µg/mL and an IC50 [12] of 7.08 µg/mL. For the same substance, the IC50 [13] was 0.002 µg/mL, the IC50 [14] was 30.4 µg/mL and the IC50 [15] was 0.005 µg/mL. The IC50 [16] was 0.712 µg/mL, the IC50 [17] was 0.492 µg/mL and the IC50 [18] was 0.201 µg/mL. It also gave an IC50 [19] of 0.174 µg/mL, an IC50 [20] of 0.044 µg/mL and an IC50 [21] of over 50 µg/mL. It also gave an IC50 [22] of 0.095 µg/mL, an IC50 [23] of 0.099 µg/mL and an IC50 [24] of 3.22 µg/mL. For the same substance, the IC50 [25] was 3.67 µg/mL, the IC50 [26] was 0.045 µg/mL and the IC50 [27] was 0.023 µg/mL. The IC50 [28] was 1.9 µg/mL, the IC50 [29] was over 50 µg/mL and the IC50 [30] was 0.206 µg/mL. It also gave an IC50 [31] of 9.06 µg/mL, an IC50 [32] of 0.054 µg/mL and an IC50 [33] of 0.013 µg/mL. For the same substance, the IC50 [34] was over 50 µg/mL, the IC50 [35] was 0.009 µg/mL and the IC50 [36] was 0.018 µg/mL. The IC50 [37] was 0.006 µg/mL, the IC50 [38] was 0.299 µg/mL and the IC50 [39] was over 50 µg/mL. It also gave an IC50 [40] of 0.079 µg/mL, an IC50 [41] of over 50 µg/mL and an IC50 [42] of 0.013 µg/mL. For the same substance, the IC50 [43] was over 50 µg/mL, the IC50 [44] was 0.044 µg/mL and the IC50 [45] was over 50 µg/mL.
With 4993_K13 (PGT-141) (antibody) the IC50 [1] was 0.579 µg/mL, the IC50 [2] was over 50 µg/mL and the IC50 [3] was 20.3 µg/mL. It also gave an IC50 [4] of 0.001 µg/mL, an IC50 [5] of 0.003 µg/mL and an IC50 [6] of over 50 µg/mL. It also gave an IC50 [7] of over 50 µg/mL, an IC50 [8] of 0.001 µg/mL and an IC50 [9] of over 50 µg/mL. It also gave an IC50 [10] of 0.59 µg/mL, an IC50 [11] of 14.2 µg/mL and an IC50 [12] of over 50 µg/mL. For the same substance, the IC50 [13] was 0.009 µg/mL, the IC50 [14] was over 50 µg/mL and the IC50 [15] was 0.008 µg/mL. It also gave an IC50 [16] of 1.34 µg/mL, an IC50 [17] of 0.381 µg/mL and an IC50 [18] of 0.153 µg/mL. It also gave an IC50 [19] of 0.101 µg/mL, an IC50 [20] of 0.247 µg/mL and an IC50 [21] of over 50 µg/mL. The IC50 [22] was 3.27 µg/mL, the IC50 [23] was 13.8 µg/mL and the IC50 [24] was over 50 µg/mL. For the same substance, the IC50 [25] was over 50 µg/mL, the IC50 [26] was 0.4 µg/mL and the IC50 [27] was 0.586 µg/mL. For the same substance, the IC50 [28] was over 50 µg/mL, the IC50 [29] was over 50 µg/mL and the IC50 [30] was 2.24 µg/mL. The IC50 [31] was over 50 µg/mL, the IC50 [32] was 0.147 µg/mL and the IC50 [33] was 0.572 µg/mL. The IC50 [34] was over 50 µg/mL, the IC50 [35] was 0.318 µg/mL and the IC50 [36] was 0.011 µg/mL. It also gave an IC50 [37] of over 50 µg/mL, an IC50 [38] of 0.113 µg/mL and an IC50 [39] of over 50 µg/mL. The IC50 [40] was 1.66 µg/mL, the IC50 [41] was over 50 µg/mL and the IC50 [42] was 0.007 µg/mL. For the same substance, the IC50 [43] was over 50 µg/mL, the IC50 [44] was 0.383 µg/mL and the IC50 [45] was over 50 µg/mL.
